Experimental data: patent publication US20090123479A1 (published 2009)

T1: recombinant human IL-23 (human, UniProt Q9NPF7 20-189; P29460 23-328)
T1 construct: also called hIL-23
T1 sequence 1: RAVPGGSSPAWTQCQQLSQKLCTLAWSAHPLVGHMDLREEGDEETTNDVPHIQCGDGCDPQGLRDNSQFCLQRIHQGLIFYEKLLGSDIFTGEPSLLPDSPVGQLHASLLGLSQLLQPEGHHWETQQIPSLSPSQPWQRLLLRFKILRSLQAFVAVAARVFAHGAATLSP
T1 sequence 2: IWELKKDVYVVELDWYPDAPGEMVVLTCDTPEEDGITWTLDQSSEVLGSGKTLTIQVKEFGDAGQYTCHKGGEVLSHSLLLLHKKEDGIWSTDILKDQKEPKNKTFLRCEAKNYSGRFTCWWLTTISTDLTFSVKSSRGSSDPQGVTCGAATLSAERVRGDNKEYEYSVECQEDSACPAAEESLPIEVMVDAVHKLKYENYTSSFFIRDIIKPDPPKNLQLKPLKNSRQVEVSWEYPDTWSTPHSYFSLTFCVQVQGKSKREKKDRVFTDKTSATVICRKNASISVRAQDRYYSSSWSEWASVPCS


Biological target: T1, recombinant human IL-23
Assay: SPR (Biacore T100), tissue culture supernatant antibody captured on anti-human IgG, IL-23 analyte
Experimental: Biacore analysis was carried out using a capture surface on a CM5 chip. Anti-human IgG (BR-1008-39) was used as the capturing agent. Anti-human IgG was coupled to a CM5 biosensor chip by primary amine coupling. Humanized antibody was captured on this immobilised surface and defined concentrations of IL-23 were passed over this captured surface. An injection of buffer over the captured antibody surface was used for double-referencing. […] T100 Biacore machine was used to generate the data; all runs were carried out at 25° C. using HBS EP. Data was analysed using the software inherent to the machine and fitted to the 1:1 model of binding. Tables 7 and 8 detail the IL-23 binding analysis carried out on the 8C92H6.HC1LC1 chimera and selected humanized variants in two separate experiments. […] The data shown for the humanized variants is representative of a number of runs. The chimeric mAb (8C9H6.HC1LC1) was only run once in each experiment, so data shown for this mAb is from that one run.

| Binder | Kd [nM] | koff [s⁻¹] | kon [M⁻¹ s⁻¹] |
| --- | --- | --- | --- |
| A3M4 (antibody, human IgG1, kappa, V domains shown, Full length chains) VH: QVQLVQSGAEVKKPGSSVKVSCKASGYTFTSYGITWVRQAPGQGLEWMGENYPRSGNTYYNEKFKGRVTITADKSTSTAYMELSSLRSEDTAVYYCARSEFISTVVAPYYYALDYWGQGTLVTVSS VL: DIVMTQSPDSLAVSLGERATINCKASKKVTIFGSTSALHWYQQKPGQPPKLIYNGAKPESGVPDRFSGSGSGTDFTLTISSLQAEDVAVYYCLQNKEVPYTFGGGTKVEIKR | 0.0775 | 0.000106 | 1.36e+06 |
| A12.5M3 (antibody, V domains shown) VH: QVQLVQSGAEVKKPGSSVKVSCKASGYTFASYGITWVRQAPGQGLEWMGENYPRSGNTYYNEKFKGRVTITADKSTSTAYMELSSLRSEDTAVYYCARVEFISTVVAPYYYALDYWGQGTLVTVSS VL: DIVMTQSPDSLAVSLGERATINCKASKKVTIFGSTSALHWYQQKPGQPPKLIYNGAKLESGVPDRFSGSGSGTDFTLTISSLQAEDVAVYYCLQNKEVPYTFGGGTKVEIK | 0.0637 | 0.000172 | 2.7e+06 |
| A5M4 (antibody, human IgG1, kappa, V domains shown, Full length chains) VH: QVQLVQSGAEVKKPGSSVKVSCKASGYTFTSYGITWVRQAPGQGLEWMGENYPRSGNTYYNEKFKGRVTITADKSTSTAYMELSSLRSEDTAVYYCARAEFISTVVAPYYYALDYWGQGTLVTVSS VL: DIVMTQSPDSLAVSLGERATINCKASKKVTIFGSTSALHWYQQKPGQPPKLIYNGAKPESGVPDRFSGSGSGTDFTLTISSLQAEDVAVYYCLQNKEVPYTFGGGTKVEIKR | 0.053 | 0.000101 | 1.91e+06 |
| A7M4 (antibody, human IgG1, kappa, V domains shown, Full length chains) VH: QVQLVQSGAEVKKPGSSVKVSCKASGYTFTSYGITWVRQAPGQGLEWMGEDYPRSGNTYYNEKFKGRVTITADKSTSTAYMELSSLRSEDTAVYYCARSEFISTVVAPYYYALDYWGQGTLVTVSS VL: DIVMTQSPDSLAVSLGERATINCKASKKVTIFGSTSALHWYQQKPGQPPKLIYNGAKPESGVPDRFSGSGSGTDFTLTISSLQAEDVAVYYCLQNKEVPYTFGGGTKVEIKR | 0.0918 | 0.000123 | 1.34e+06 |
| A6M4 (antibody, human IgG1, kappa, V domains shown, Full length chains) VH: QVQLVQSGAEVKKPGSSVKVSCKASGYTFTSYGITWVRQAPGQGLEWMGENYPRSGNTYYNEKFKGRVTITADKSTSTAYMELSSLRSEDTAVYYCARVEFISTVVAPYYYALDYWGQGTLVTVSS VL: DIVMTQSPDSLAVSLGERATINCKASKKVTIFGSTSALHWYQQKPGQPPKLIYNGAKPESGVPDRFSGSGSGTDFTLTISSLQAEDVAVYYCLQNKEVPYTFGGGTKVEIKR | 0.0465 | 0.000149 | 3.22e+06 |
| A3M5 (antibody, human IgG1, kappa, V domains shown, Full length chains) VH: QVQLVQSGAEVKKPGSSVKVSCKASGYTFTSYGITWVRQAPGQGLEWMGENYPRSGNTYYNEKFKGRVTITADKSTSTAYMELSSLRSEDTAVYYCARSEFISTVVAPYYYALDYWGQGTLVTVSS VL: DIVMTQSPDSLAVSLGERATINCKASKKVTIFGSISALHWYQQKPGQPPKLIYDGAKLESGVPDRFSGSGSGTDFTLTISSLQAEDVAVYYCLQNKEVPYTFGGGTKVEIKR | 26.4 | 0.0012 | 45500 |
| A3M6 (antibody, human IgG1, kappa, V domains shown, Full length chains) VH: QVQLVQSGAEVKKPGSSVKVSCKASGYTFTSYGITWVRQAPGQGLEWMGENYPRSGNTYYNEKFKGRVTITADKSTSTAYMELSSLRSEDTAVYYCARSEFISTVVAPYYYALDYWGQGTLVTVSS VL: DIVMTQSPDSLAVSLGERATINCKASKKVTIFGSISALHWYQQKPGQPPKLIYQGAKLESGVPDRFSGSGSGTDFTLTISSLQAEDVAVYYCLQNKEVPYTFGGGTKVEIKR | 1.23 | 0.0011 | 896000 |

The remaining lines, values ahead:

| Kd [nM] | koff [s⁻¹] | kon [M⁻¹ s⁻¹] | Binder |
| --- | --- | --- | --- |
| 0.0444 | 9.18e-05 | 2.07e+06 | A11M4 (antibody, V domains shown) VH: QVQLVQSGAEVKKPGSSVKVSCKASGYTFASYGITWVRQAPGQGLEWMGENYPRSGNTYYNEKFKGRVTITADKSTSTAYMELSSLRSEDTAMYYCARAEFISTVVAPYYYALDYWGQGTLVTVSS VL: DIVMTQSPDSLAVSLGERATINCKASKKVTIFGSTSALHWYQQKPGQPPKLIYNGAKPESGVPDRFSGSGSGTDFTLTISSLQAEDVAVYYCLQNKEVPYTFGGGTKVEIK |
| 0.0665 | 9.62e-05 | 1.45e+06 | A11.5M4 (antibody, V domains shown) VH: QVQLVQSGAEVKKPGSSVKVSCKASGYTFASYGITWVRQAPGQGLEWMGENYPRSGNTYYNEKFKGRVTITADKSTSTAYMELSSLRSEDTAVYYCARAEFISTVVAPYYYALDYWGQGTLVTVSS VL: DIVMTQSPDSLAVSLGERATINCKASKKVTIFGSTSALHWYQQKPGQPPKLIYNGAKPESGVPDRFSGSGSGTDFTLTISSLQAEDVAVYYCLQNKEVPYTFGGGTKVEIK |
| 0.0962 | 0.000115 | 1.19e+06 | A10.5M3 (antibody, V domains shown) VH: QVQLVQSGAEVKKPGSSVKVSCKASGYTFASYGITWVRQAPGQGLEWMGENYPRSGNTYYNEKFKGRVTITADKSTSTAYMELSSLRSEDTAVYYCARSEFISTVVAPYYYALDYWGQGTLVTVSS VL: DIVMTQSPDSLAVSLGERATINCKASKKVTIFGSTSALHWYQQKPGQPPKLIYNGAKLESGVPDRFSGSGSGTDFTLTISSLQAEDVAVYYCLQNKEVPYTFGGGTKVEIK |
| 0.0606 | 9.38e-05 | 1.55e+06 | A11.5M3 (antibody, V domains shown) VH: QVQLVQSGAEVKKPGSSVKVSCKASGYTFASYGITWVRQAPGQGLEWMGENYPRSGNTYYNEKFKGRVTITADKSTSTAYMELSSLRSEDTAVYYCARAEFISTVVAPYYYALDYWGQGTLVTVSS VL: DIVMTQSPDSLAVSLGERATINCKASKKVTIFGSTSALHWYQQKPGQPPKLIYNGAKLESGVPDRFSGSGSGTDFTLTISSLQAEDVAVYYCLQNKEVPYTFGGGTKVEIK |
| 0.0456 | 0.000129 | 2.83e+06 | A9M4 (antibody, V domains shown) VH: QVQLVQSGAEVKKPGSSVKVSCKASGYTFTSYGITWVRQAPGQGLEWMGEDYPRSGNTYYNEKFKGRVTITADKSTSTAYMELSSLRSEDTAVYYCARVEFISTVVAPYYYALDYWGQGTLVTVSS VL: DIVMTQSPDSLAVSLGERATINCKASKKVTIFGSTSALHWYQQKPGQPPKLIYNGAKPESGVPDRFSGSGSGTDFTLTISSLQAEDVAVYYCLQNKEVPYTFGGGTKVEIK |
| 0.0462 | 9.58e-05 | 2.08e+06 | A8M4 (antibody, V domains shown) VH: QVQLVQSGAEVKKPGSSVKVSCKASGYTFTSYGITWVRQAPGQGLEWMGEDYPRSGNTYYNEKFKGRVTITADKSTSTAYMELSSLRSEDTAVYYCARAEFISTVVAPYYYALDYWGQGTLVTVSS VL: DIVMTQSPDSLAVSLGERATINCKASKKVTIFGSTSALHWYQQKPGQPPKLIYNGAKPESGVPDRFSGSGSGTDFTLTISSLQAEDVAVYYCLQNKEVPYTFGGGTKVEIK |
| 0.0733 | 0.000107 | 1.46e+06 | A10M4 (antibody, human IgG1, kappa, V domains shown, Full length chains) VH: QVQLVQSGAEVKKPGSSVKVSCKASGYTFASYGITWVRQAPGQGLEWMGENYPRSGNTYYNEKFKGRVTITADKSTSTAYMELSSLRSEDTAMYYCARSEFISTVVAPYYYALDYWGQGTLVTVSS VL: DIVMTQSPDSLAVSLGERATINCKASKKVTIFGSTSALHWYQQKPGQPPKLIYNGAKPESGVPDRFSGSGSGTDFTLTISSLQAEDVAVYYCLQNKEVPYTFGGGTKVEIKR |
| 0.106 | 0.000117 | 1.11e+06 | A10M3 (antibody, human IgG1, kappa, V domains shown, Full length chains) VH: QVQLVQSGAEVKKPGSSVKVSCKASGYTFASYGITWVRQAPGQGLEWMGENYPRSGNTYYNEKFKGRVTITADKSTSTAYMELSSLRSEDTAMYYCARSEFISTVVAPYYYALDYWGQGTLVTVSS VL: DIVMTQSPDSLAVSLGERATINCKASKKVTIFGSTSALHWYQQKPGQPPKLIYNGAKLESGVPDRFSGSGSGTDFTLTISSLQAEDVAVYYCLQNKEVPYTFGGGTKVEIKR |
| 0.0416 | 8.64e-05 | 2.08e+06 | A10.5M4 (antibody, V domains shown) VH: QVQLVQSGAEVKKPGSSVKVSCKASGYTFASYGITWVRQAPGQGLEWMGENYPRSGNTYYNEKFKGRVTITADKSTSTAYMELSSLRSEDTAVYYCARSEFISTVVAPYYYALDYWGQGTLVTVSS VL: DIVMTQSPDSLAVSLGERATINCKASKKVTIFGSTSALHWYQQKPGQPPKLIYNGAKPESGVPDRFSGSGSGTDFTLTISSLQAEDVAVYYCLQNKEVPYTFGGGTKVEIK |
| 0.0671 | 9.57e-05 | 1.43e+06 | A11M3 (antibody, V domains shown) VH: QVQLVQSGAEVKKPGSSVKVSCKASGYTFASYGITWVRQAPGQGLEWMGENYPRSGNTYYNEKFKGRVTITADKSTSTAYMELSSLRSEDTAMYYCARAEFISTVVAPYYYALDYWGQGTLVTVSS VL: DIVMTQSPDSLAVSLGERATINCKASKKVTIFGSTSALHWYQQKPGQPPKLIYNGAKLESGVPDRFSGSGSGTDFTLTISSLQAEDVAVYYCLQNKEVPYTFGGGTKVEIK |
